Results from publication PMC11761707 (Proceedings of the National Academy of Sciences of the …, 2025).

Target: the molecule itself
Experiment: crystal structure

B1: Nmar_1354, multicopper oxidase (MCO4 lineage) from Nitrosopumilus maritimus (enzyme)
chain: DSSDTFPKFKNPNPQTLSYTLIAQDAEIEVSPGVRAKVWTYNGTVPAPTLRFSEGDDVTVKFVNDTPYAHTIHFHGTHDSANDGVFPMIMPGEEYTYHFVAEEAGLFMYHCHAFPTSEHVRMGMFGTMIIDPAIRPMDPAREYFFTLSEFDPNNALEHFTEFYPINGYAGQYMDNPIRVVSGELTRFYVVGIGGVLQSPFHVHSTIMKVYPSGILWNEPYYAQTHLIGNGDTAIIEATWTQPGMYLFHVHGIQEERGSMAMIEVLEDASSLSDVQRPSNNKGSYSMVEWQEDLIRTLEQPQLISYENLGESAAISSEKVSADKVSIVKDSWNPEITESYDPIAIQVDSGTTVTWTNDDSVVHTVTDNENSFDSGFIQAGNTWSYSFDNPGEFDYICTLHPWMKGTISVN
  stoichiometry N: 3
